The Human Domainome abundance scans (Beltran et al. 2025)

B1: Chromodomain-helicase-DNA-binding protein 4, residues 623 to 675; numbered along this chain, Q14839 (parent)
chain: MIHRILNHSVDKKGHVHYLIKWRDLPYDQASWESEDVEIQDYDLFKQSYWNHR
B2: LIM and senescent cell antigen-like-containing domain protein 2, residues 13 to 71; numbered along this chain, Q7Z4I7 (parent)
chain: AVCQRCQARFSPAERIVNSNGELYHEHCFVCAQCFRPFPEGLFYEFEGRKYCEHDFQML

Variants of: B1
Experiment: abundance fitness (aPCA) (normalised: wild type 0, dead -1); higher = more abundant; growth selection in yeast, the domain comes from the species named
Conditions: Homo sapiens

Abundance fitness: each site, then its substitutions
P26: G -0.019, N -0.201, E -0.562, S -0.19, A -0.751
H8: D -0.92, C -0.647, P -0.831, N -0.75, W -0.863, R -0.634, E -0.69, V -0.918
V37: R 0.212, H -0.126, N 0.155, G -0.246, Q 0.052
I20: Y -0.825, V -0.276, F -0.946, L -0.622, K -0.878, Q -0.874, W -0.633
D24: R -0.487, N -0.077, E -0.014, S -0.294, Q -0.439
W50: H -0.779, D -1.23, K -0.511, Q -0.959, R -0.725, P -0.824
N51: M 0.01, Y -0.267, D 0.01, A 0.014, V -0.341
V16: I -0.059, M -0.053, F -0.382, Q -0.549, L -0.11
S9: E -0.112, R 0.156, P -0.766
D43: S -0.307, Q -0.047, M -0.262, C -0.236, H -0.186, W -0.219
I5: R -0.81, T -0.914, N -1.01, L -0.497, H -0.721, S -0.823, Q -0.591, V -0.842
D41: F -0.331, N -0.151, W -0.529, R -0.863, E -0.507, M -0.79
I39: V -0.722, P -0.897, Q -0.764, M -0.462, K -0.879, E -1.02, H -0.39, C -0.753
R23: Q -0.12, Y -0.139, K 0.021, C -0.294, N -0.5, S -0.236, H -0.164, P -0.835, L -0.219
L25: E -0.363, T -0.013, V -0.249, I -0.344
Q29: P -0.802, C -0.186, R -0.118, E -0.262, T -0.702
E35: R -0.882, T -0.45, W -0.684, L -0.833, V -0.809
W32: M -0.827, N -0.776, T -0.955, G -0.88, S -0.933
G14: T -1.08, M -1.05, H -0.86, Y -0.634, R -0.761, S -0.768, E -1.12, I -0.656
L6: V -0.231, Q -0.6, F -0.73, R -0.805

Variants of: B2
Experiment: as above
Conditions: Homo sapiens

Abundance fitness of substitutions, site by site:
F56: W -0.364
M58: F 0.154, G 0.223, N 0.132, Q 0.013, D -0.106, P -0.06, A -0.004, Y -0.309, H -0.052, L 0.04, V 0.007, E 0.061, R 0.066, C 0.043, T 0.123, W -0.055, K 0.043
L59: G 0.183, I 0.099, W -0.348, T -0.141, F -0.616, P -0.235, A 0.035, Y -0.204, V 0.036, N -0.676, S -0.312, R -0.123, E -0.373, Q -0.069, C -0.033
Q57: V -0.156, C -0.352, T -0.121, S -0.145, W -0.28, Y -0.586, I -0.295, E -0.052, A -0.077, H 0.056, R 0.107, L -0.331, N 0.062, K 0.006, F -0.346, D -0.264, G 0.118
